US5741689A, “Methods to inhibit serine kinase activity and to alter intersubunit binding activity of phosphatidylinositol 3-kinase, and serine kinase active sequence of the same” (Ludwig Institute for Cancer Research, priority 1994, dated 1998)
One block for each molecule: values may come before it.

Key:
[1] = target: p110 subunit of PI3-kinase (bovine, wild type, recombinant) (bovine) (UniProt P32871); test: GST fusion on glutathione-sepharose, p110 Sf9 lysate, bound PI3-kinase activity
[2] = target: p85α subunit of PI3-kinase (bovine, full length, recombinant) (bovine) (UniProt P23727)
[3] = target: T1, PI3-kinase p85α/p110 complex (wild type, recombinant, expressed in Sf9 cells) (Bos taurus, UniProt P32871); test: in vitro PI3-kinase assay on anti-p110 immunoprecipitates, p85α/p110 complex; type: biochemical, bovine
T1 construct: made in house; host or cells: Sf9 insect cells (baculovirus co-infection)
T1 sequence (P32871 whole entry): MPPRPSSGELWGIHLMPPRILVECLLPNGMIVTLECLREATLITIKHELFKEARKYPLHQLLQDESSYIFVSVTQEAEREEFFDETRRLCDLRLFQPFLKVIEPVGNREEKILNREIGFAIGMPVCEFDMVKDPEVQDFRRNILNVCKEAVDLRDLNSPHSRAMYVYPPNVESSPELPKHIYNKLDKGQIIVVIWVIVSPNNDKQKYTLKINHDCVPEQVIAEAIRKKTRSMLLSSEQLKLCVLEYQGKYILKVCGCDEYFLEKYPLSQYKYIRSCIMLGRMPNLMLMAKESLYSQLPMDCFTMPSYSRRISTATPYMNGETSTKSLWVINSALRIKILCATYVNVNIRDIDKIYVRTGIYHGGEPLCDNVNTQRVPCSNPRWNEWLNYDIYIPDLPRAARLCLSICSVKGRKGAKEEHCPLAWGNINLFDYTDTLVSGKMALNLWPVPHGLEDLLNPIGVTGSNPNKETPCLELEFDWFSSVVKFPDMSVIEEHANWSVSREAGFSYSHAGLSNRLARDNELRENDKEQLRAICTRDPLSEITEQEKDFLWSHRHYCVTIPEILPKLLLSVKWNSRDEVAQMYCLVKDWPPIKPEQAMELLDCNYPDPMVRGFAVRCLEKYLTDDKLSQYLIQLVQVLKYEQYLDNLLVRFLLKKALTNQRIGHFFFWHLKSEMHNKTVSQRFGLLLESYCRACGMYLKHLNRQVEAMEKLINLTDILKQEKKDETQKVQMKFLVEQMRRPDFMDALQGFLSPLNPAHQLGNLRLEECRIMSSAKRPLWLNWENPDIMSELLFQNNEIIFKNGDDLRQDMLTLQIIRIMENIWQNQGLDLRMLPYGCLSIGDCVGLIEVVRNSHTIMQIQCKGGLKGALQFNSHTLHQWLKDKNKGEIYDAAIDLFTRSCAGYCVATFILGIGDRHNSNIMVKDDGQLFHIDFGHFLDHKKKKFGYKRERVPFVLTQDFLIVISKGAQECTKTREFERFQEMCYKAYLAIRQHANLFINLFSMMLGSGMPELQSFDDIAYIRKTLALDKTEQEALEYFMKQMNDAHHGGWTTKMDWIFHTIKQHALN
T1 sequence (P23727 whole entry partner): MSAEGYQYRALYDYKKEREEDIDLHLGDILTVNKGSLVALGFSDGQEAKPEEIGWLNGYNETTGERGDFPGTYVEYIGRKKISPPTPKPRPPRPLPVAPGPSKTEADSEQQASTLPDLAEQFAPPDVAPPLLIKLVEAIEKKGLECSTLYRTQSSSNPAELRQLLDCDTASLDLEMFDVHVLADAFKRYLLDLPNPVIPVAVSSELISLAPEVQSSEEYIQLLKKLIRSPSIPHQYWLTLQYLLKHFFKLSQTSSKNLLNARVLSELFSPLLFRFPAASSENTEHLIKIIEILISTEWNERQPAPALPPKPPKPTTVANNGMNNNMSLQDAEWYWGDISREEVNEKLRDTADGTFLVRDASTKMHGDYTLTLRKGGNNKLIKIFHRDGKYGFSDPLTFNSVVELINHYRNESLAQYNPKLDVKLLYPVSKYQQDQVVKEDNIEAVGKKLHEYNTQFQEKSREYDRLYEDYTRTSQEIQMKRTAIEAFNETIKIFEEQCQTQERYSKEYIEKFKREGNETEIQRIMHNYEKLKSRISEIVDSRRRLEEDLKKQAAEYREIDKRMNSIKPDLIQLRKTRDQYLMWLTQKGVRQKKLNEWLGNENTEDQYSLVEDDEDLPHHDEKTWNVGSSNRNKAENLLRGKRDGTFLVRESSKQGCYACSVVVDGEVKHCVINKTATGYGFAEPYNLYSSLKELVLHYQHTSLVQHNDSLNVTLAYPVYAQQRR
Procedure: (§1) Insect cells were infected with p85α/p110 complex, (see FIG. 17, A, lanes 1-6) or p110 alone, (see FIG. 17, B, lanes 7-12). The immunoprecipitates were washed twice with PI3-kinase buffer (20 mM Tris-HCl, pH 7.5, 100 mM NaCl, 0.5 mM EDTA). The samples were untreated or treated with 0.3 mM 5,5'-Dithio-bis [2-nitrobenzoic acid] (Nbs2) for 15 minutes at 22° C. Excess reagent was removed by washing the complexes three times with PI3-kinase buffer and the immunoprecipitate was then incubated for 15 minutes at 22° C. with increasing concentrations of dithiothreitol (DTT). A control sample was incubated with DTT alone at a final concentration of 300 mM. The remaining DTT was removed by washing with lysis buffer and the immunoprecipitates were subjected to PI3-kinase assays or to in vitro protein kinase assays described below.
(§2) The experiment was carried out and the experimental results set forth in FIG. 17, A. In vitro PI3-kinase assays were performed on anti-p110 immunoprecipitates of these cells that had been treated as follows: untreated (see FIG. 17, A, lane 1 and 7); 300 mM DTT (lanes 2 and 8); treated with 0.3 mM Nbs2 (lanes 3 and 9); immunoprecipitates pretreated with 0.3 mM Nbs2 incubated with 3 mM DTT (lanes 4 and 10), 30 mM DTT (lanes 5 and 11); 300 mM DTT (lanes 6 and 12).

[4] = target: T2, PI3-kinase p110 subunit alone (wild type, recombinant, expressed in Sf9 cells) (Bos taurus, UniProt P32871); test: in vitro PI3-kinase assay on anti-p110 immunoprecipitates, p110 alone; type: biochemical, bovine
T2 construct: made in house; host or cells: Sf9 insect cells (baculovirus)
T2 sequence (P32871 whole entry): as the sequence (P32871 whole entry) above
Procedure: as §1, §2

[5] = target: T3, PI3-kinase p85α/p110 complex (wild type p110, recombinant, expressed in Sf9 cells), protein-serine kinase activity (Bos taurus, UniProt P32871); test: in vitro protein-serine kinase assay (phosphorylation of p85α) on anti-p110 immunoprecipitates of p85α/p110; type: biochemical, bovine; settings: DTT alone, final concentration 300 mM; FIG. 17 B lane 2
T3 construct: made in house; host or cells: Sf9 insect cells (baculovirus co-infection)
T3 sequence (P32871 whole entry): as above
T3 sequence (P23727 whole entry partner): as the sequence (P23727 whole entry partner) above
Procedure: Anti-p110 immunoprecipitates of p85α/p110 were used to study the kinetics of phosphorylation. The Km (ATP) for the phosphorylation of p85α was measured as approximately 4 μM. The stoichiometry of phosphorylation of p85α was then measured in the presence of excess ATP (50 μM). Approximately 0.9 mol of phosphate was incorporated into one mol of p85α protein.
A further experiment to determine in vitro kinase activity with treatment of Nbs2 and DTT was also conducted. Lysates of Sf9 cells that had been coinfected with p85α/p110 baculoviruses were also treated as follows: the lysates were immunoprecipitated with anti-p110 antibodies and treated as follows: untreated (see FIG. 17, B, lane 1); 300 mM DTT (lane 2); 0.3 mM Nbs2 (lane 3); pretreated with 0.3 mM Nbs2 and then incubated with 3 mM DTT, 30 mM DTT, 300 mM DTT (lanes 4, 5, 6 respectively). Samples were then subjected to in vitro kinase assays and analysis by SDS-PAGE was conducted. Phosphorylated proteins were visualized by autoradiography.
The p110 protein was immunoprecipitated from insect cells, and equal amounts of each GST fusion protein or the GST protein alone, were mixed with p110 and the proteins were allowed to phosphorylate in vitro. […] Phosphorylated proteins were analyzed by SDS-PAGE and autoradiography.

[6] = target: p85β subunit of PI3-kinase (bovine, full length, recombinant) (bovine, UniProt P23726); test: GST-p110 fusion pull-down from Sf9 lysate expressing p85β
[7] = target: p85α subunit of PI3-kinase (bovine, full length, recombinant) (bovine, UniProt P23727); test: GST-p110 fusion pull-down from Sf9 lysate expressing p85α
[8] = target: p110 subunit of PI3-kinase (bovine, wild type, recombinant) (bovine, UniProt P32871); test: GST fusion on glutathione-sepharose, p110 Sf9 lysate, bound PI3-kinase activity
Procedure: GST fusion proteins of the various subdomains of p85α were constructed and immobilized on glutathione-sepharose beads, See FIG. 2, A. These proteins were used for affinity analysis with cell lysates prepared from Sf9 cells infected with a recombinant baculovirus expressing p110. The complexes were washed and subjected to PI3-kinase activity. GST alone, and GST p85α bound to glutathione-sepharose beads incubated with wild-type lysate were used as controls.

Molecule: p110 subunit of PI3-kinase (bovine, wild type, recombinant) (from UniProt P32871) (enzyme)
stoichiometry of phosphorylation of p85α, in vitro protein kinase assay (mol of phosphate per mol of p85α) [2]: 0.9

Molecule: O[C@H](CS)[C@H](O)CS (racemic) [DTT, dithiothreitol]
activation of PI3-kinase activity ([3]; DTT alone, final concentration 300 mM, FIG. 17 A lane 2): slight activation
activation of PI3-kinase activity ([4]; DTT alone, final concentration 300 mM, FIG. 17 A lane 8): slight activation
activation of protein serine kinase activity [5]: slight activation

B1: GST-p110 fusion protein p110-4 (amino acids 601-960) (other)
chain: LLDCNYPDPMVRGFAVRCLEKYLTDDKLSQYLIQLVQVLKYEQYLDNLLVRFLLKKALTNQRIGHFFFWHLKSEMHNKTVSQRFGLLLESYCRACGMYLKHLNRQVEAMEKLINLTDILKQEKKDETQKVQMKFLVEQMRRPDFMDALQGFLSPLNPAHQLGNLRLEECRIMSSAKRPLWLNWENPDIMSELLFQNNEIIFKNGDDLRQDMLTLQIIRIMENIWQNQGLDLRMLPYGCLSIGDCVGLIEVVRNSHTIMQIQCKGGLKGALQFNSHTLHQWLKDKNKGEIYDAAIDLFTRSCAGYCVATFILGIGDRHNSNIMVKDDGQLFHIDFGHFLDHKKKKFGYKRERVPFVLTQDF
binding result [6]: no binding
binding result [7]: no binding

B2: GST-p110 fusion protein p110-1.1 (amino acids 1-49) (other)
chain: MPPRPSSGELWGIHLMPPRILVECLLPNGMIVTLECLREATLITIKHEL
binding result [6]: no binding
binding result [7]: no binding

B5: GST-p110 fusion protein p110-1.7 (amino acids 37-128) (other)
chain: LREATLITIKHELFKEARKYPLHQLLQDESSYIFVSVTQEAEREEFFDETRRLCDLRLFQPFLKVIEPVGNREEKILNREIGFAIGMPVCEF
binding result [6]: no binding
binding result [7]: no binding

B6: GST-p110 fusion protein p110-6 (amino acids 760-1069) (other)
chain: QLGNLRLEECRIMSSAKRPLWLNWENPDIMSELLFQNNEIIFKNGDDLRQDMLTLQIIRIMENIWQNQGLDLRMLPYGCLSIGDCVGLIEVVRNSHTIMQIQCKGGLKGALQFNSHTLHQWLKDKNKGEIYDAAIDLFTRSCAGYCVATFILGIGDRHNSNIMVKDDGQLFHIDFGHFLDHKKKKFGYKRERVPFVLTQDFLIVISKGAQECTKTREFERFQEMCYKAYLAIRQHANLFINLFSMMLGSGMPELQSFDDIAYIRKTLALDKTEQEALEYFMKQMNDAHHGGWTTKMDWIFHTIKQHALN
binding result [6]: no binding
binding result [7]: no binding

B7: GSTp85β(516-724) (other)
chain: RILLNSERLKSRIAEIHESRTKLEQELRAQASDNREIDKRMNSLKPDLMQLRKIRDQYLVWLTQKGARQKKINEWLGIKNETEDQYSLMEDEDDLPHHEERTWYVGKINRTQAEEMLSGKRDGTFLIRESSQRGCYACSVVVDGDTKHCVIYRTATGFGFAEPYNLYGSLKELVLHYQHASLVQHNDALTVTLAHPVRAPGPGPPPAAR
binding result [8]: no binding

B8: GST fusion of the BCR homology region of p85α (amino acids 125-322) (other)
chain: PDVAPPLLIKLVEAIEKKGLECSTLYRTQSSSNPAELRQLLDCDTASLDLEMFDVHVLADAFKRYLLDLPNPVIPVAVSSELISLAPEVQSSEEYIQLLKKLIRSPSIPHQYWLTLQYLLKHFFKLSQTSSKNLLNARVLSELFSPLLFRFPAASSENTEHLIKIIEILISTEWNERQPAPALPPKPPKPTTVANNGM
binding result [8]: no binding

B11: GST-p110 fusion protein p110-5 (amino acids 760-960) (other)
chain: QLGNLRLEECRIMSSAKRPLWLNWENPDIMSELLFQNNEIIFKNGDDLRQDMLTLQIIRIMENIWQNQGLDLRMLPYGCLSIGDCVGLIEVVRNSHTIMQIQCKGGLKGALQFNSHTLHQWLKDKNKGEIYDAAIDLFTRSCAGYCVATFILGIGDRHNSNIMVKDDGQLFHIDFGHFLDHKKKKFGYKRERVPFVLTQDF
binding result [6]: no binding
binding result [7]: no binding

B12: GST-p110 fusion protein p110-1.6 (amino acids 1-35) (other)
chain: MPPRPSSGELWGIHLMPPRILVECLLPNGMIVTLE
binding result [6]: no binding
binding result [7]: no binding

Next, values leading:

percent of the PI3-kinase activity bound as compared to wild type GSTp85β [1]: 65%
Molecule: GST-85βΔ486-516 (from UniProt P23726)

percent of the PI3-kinase activity bound as compared to wild type GSTp85β [1]: 65%
Molecule: GST-85βΔ445-469 (from UniProt P23726)

inhibition at 300 µM ([3]; 0.25 h, 0.3 mM Nbs2, 15 minutes at 22° C, FIG. 17 A lane 3, read-out: loss of PI3-kinase activity): ~95%
inhibition at 300 µM ([4]; 0.25 h, 0.3 mM Nbs2, 15 minutes at 22° C, FIG. 17 A lane 9, read-out: loss of PI3-kinase activity): ~95%
Molecule: O=C(O)c1cc(SSc2ccc([N+](=O)[O-])c(C(=O)O)c2)ccc1[N+](=O)[O-] [Nbs2, 5,5'-Dithio-bis [2-nitrobenzoic acid]]

binding result [8]: no binding
B3: GSTp85β(486-724) (other)
chain: IFEEQGQTQEKCSKEYLERFRREGNEKEMQRILLNSERLKSRIAEIHESRTKLEQELRAQASDNREIDKRMNSLKPDLMQLRKIRDQYLVWLTQKGARQKKINEWLGIKNETEDQYSLMEDEDDLPHHEERTWYVGKINRTQAEEMLSGKRDGTFLIRESSQRGCYACSVVVDGDTKHCVIYRTATGFGFAEPYNLYGSLKELVLHYQHASLVQHNDALTVTLAHPVRAPGPGPPPAAR

binding result [6]: no binding
binding result [7]: no binding
B4: GST-p110 fusion protein p110-1.4 (amino acids 20-81) (other)
chain: ILVECLLPNGMIVTLECLREATLITIKHELFKEARKYPLHQLLQDESSYIFVSVTQEAEREE

binding result [6]: no binding
binding result [7]: no binding
B9: GST-p110 fusion protein p110-3 (amino acids 577-1068) (other)
chain: RDEVAQMYCLVKDWPPIKPEQAMELLDCNYPDPMVRGFAVRCLEKYLTDDKLSQYLIQLVQVLKYEQYLDNLLVRFLLKKALTNQRIGHFFFWHLKSEMHNKTVSQRFGLLLESYCRACGMYLKHLNRQVEAMEKLINLTDILKQEKKDETQKVQMKFLVEQMRRPDFMDALQGFLSPLNPAHQLGNLRLEECRIMSSAKRPLWLNWENPDIMSELLFQNNEIIFKNGDDLRQDMLTLQIIRIMENIWQNQGLDLRMLPYGCLSIGDCVGLIEVVRNSHTIMQIQCKGGLKGALQFNSHTLHQWLKDKNKGEIYDAAIDLFTRSCAGYCVATFILGIGDRHNSNIMVKDDGQLFHIDFGHFLDHKKKKFGYKRERVPFVLTQDFLIVISKGAQECTKTREFERFQEMCYKAYLAIRQHANLFINLFSMMLGSGMPELQSFDDIAYIRKTLALDKTEQEALEYFMKQMNDAHHGGWTTKMDWIFHTIKQHALN

binding result [6]: no binding
binding result [7]: no binding
B10: GST-p110 fusion protein p110-1.2 (amino acids 1-81) (other)
chain: MPPRPSSGELWGIHLMPPRILVECLLPNGMIVTLECLREATLITIKHELFKEARKYPLHQLLQDESSYIFVSVTQEAEREE

binding result [8]: no binding
B13: GST fusion of the SH3 domain of p85α (amino acids 1-86) (other)
chain: MSAEGYQYRALYDYKKEREEDIDLHLGDILTVNKGSLVALGFSDGQEAKPEEIGWLNGYNETTGERGDFPGTYVEYIGRKKISPPT
